Results on one protein are retold here after publication PMC10033316.

This data set can be described thus: BS3 cross-linking, non-reducing SDS-PAGE, anti-Flag blot. The settings on record: glycan changed form; control: K562/ADR cells (low GnT-III).

B1: TNF receptor 2 (TNFR2): GnT-III overexpression (protein)
parent chain: MAPVAVWAALAVGLELWAAAHALPAQVAFTPYAPEPGSTCRLREYYDQTAQMCCSKCSPGQHAKVFCTKTSDTVCDSCEDSTYTQLWNWVPECLSCGSRCSSDQVETQACTREQNRICTCRPGWYCALSKQEGCRLCAPLRKCRPGFGVARPGTETSDVVCKPCAPGTFSNTTSSTDICRPHQICNVVAIPGNASMDAVCTSTSPTRSMAPGAVHLPQPVSTRSQHTQPTPEPSTAPSTSFLLPMGPSPPAEGSTGDFALPVGLIVGVTALGLLIIGVVNCVIMTQVKKKPLCLQREAKVPHLPADKARGTQGPEQQHLLITAPSSSSSSLESSASALDRRAPTRNQPQAPGVEASGAGEARASTGSSDSSPGGHGTQVNVTCIVNVCSSSDHSSQCSSQASSTMGDTDSSPSESPKDEQVPFSKEECAFRSQLETPETLLGSTEEKPLPLGVPDAGMKPS
On to B1, for which the oligomerisation result is listed as “decreases”.
